Assay results published in US20140087995A1 (published 2014).
Numbered stars: 1 amine (or outer) side, 2 acyl side, 3 side chain; on linkers, the order of the positions; unused ones are H or OH. Bridge positions count the residues as written; N and C are the ends. Side chains are listed from the residue outwards. Ends that are not written are not given here. * marks the point of attachment. C20 diacid = O=C(O)CCCCCCCCCCCCCCCCCCC(=O)*; C18 diacid = O=C(O)CCCCCCCCCCCCCCCCC(=O)*; C16 diacid = O=C(O)CCCCCCCCCCCCCCC(=O)*; γGlu = O=C(O)[C@H](CCC(=O)[*:2])N[*:1]; C14 diacid = O=C(O)CCCCCCCCCCCCC(=O)*

Experiments:
[1] = biological target: T1, rat amylin receptor (rat calcitonin receptor + rat RAMP 3) (rat, UniProt P32214 25-516; Q9JJ73 23-147); test: SPA competition vs 125I-rat amylin, membranes (Assay VI)
T1 construct: whole, on cells; Membranes prepared from transiently transfected BHK tk'ts 13 cells; also called rAmylin-R; rat amylin 3(a) receptor
T1 sequence (looked up) 1: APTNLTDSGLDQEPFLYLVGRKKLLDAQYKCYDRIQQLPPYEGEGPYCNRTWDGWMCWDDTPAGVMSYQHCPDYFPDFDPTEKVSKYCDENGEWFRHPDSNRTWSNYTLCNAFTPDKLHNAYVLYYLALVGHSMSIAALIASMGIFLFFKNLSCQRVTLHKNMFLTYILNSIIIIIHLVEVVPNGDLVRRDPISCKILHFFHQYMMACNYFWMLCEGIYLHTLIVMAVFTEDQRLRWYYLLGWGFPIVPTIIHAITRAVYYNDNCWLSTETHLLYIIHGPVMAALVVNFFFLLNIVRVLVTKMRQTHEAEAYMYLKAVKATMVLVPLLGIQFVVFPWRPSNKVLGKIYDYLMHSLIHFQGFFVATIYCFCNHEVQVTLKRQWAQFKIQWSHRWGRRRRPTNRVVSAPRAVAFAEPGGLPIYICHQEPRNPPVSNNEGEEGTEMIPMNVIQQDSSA
T1 sequence (looked up) 2: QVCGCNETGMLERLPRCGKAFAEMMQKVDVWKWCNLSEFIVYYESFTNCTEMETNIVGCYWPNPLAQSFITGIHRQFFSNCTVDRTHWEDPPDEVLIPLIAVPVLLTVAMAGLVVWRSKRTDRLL

rat calcitonin receptor [2] = biological target: T2, rat calcitonin receptor (rat, UniProt P32214 25-516); test: SPA competition vs 125I-calcitonin, membranes (Assay VIII)
T2 construct: whole, on cells; Membranes prepared from transiently transfected BHK tk'ts 13 cells; also called rCTR; rat calcitonin (a) receptor
T2 sequence (looked up): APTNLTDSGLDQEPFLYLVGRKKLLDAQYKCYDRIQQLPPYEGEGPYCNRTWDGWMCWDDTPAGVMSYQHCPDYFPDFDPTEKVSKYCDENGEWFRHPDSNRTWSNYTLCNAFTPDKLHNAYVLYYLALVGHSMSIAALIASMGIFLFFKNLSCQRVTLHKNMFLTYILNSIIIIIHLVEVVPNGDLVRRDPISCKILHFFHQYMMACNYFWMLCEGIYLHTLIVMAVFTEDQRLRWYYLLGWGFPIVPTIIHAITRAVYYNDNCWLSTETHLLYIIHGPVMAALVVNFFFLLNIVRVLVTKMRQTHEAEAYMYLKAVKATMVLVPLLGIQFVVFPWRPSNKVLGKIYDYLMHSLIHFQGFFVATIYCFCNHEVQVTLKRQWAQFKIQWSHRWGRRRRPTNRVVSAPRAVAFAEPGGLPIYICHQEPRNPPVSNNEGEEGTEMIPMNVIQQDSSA

rat calcitonin receptor [3] = biological target: T2, rat calcitonin receptor; test: ratio of IC50 on rat calcitonin receptor to IC50 on rat amylin receptor
[4] = biological target: T3, human calcitonin receptor (human, UniProt P30988 25-474); test: ratio of IC50 on human calcitonin receptor to IC50 on human amylin receptor
T3 construct: whole, on cells; Membranes from stably transfected BHK cells; also called hCTR; hCT
T3 sequence (looked up): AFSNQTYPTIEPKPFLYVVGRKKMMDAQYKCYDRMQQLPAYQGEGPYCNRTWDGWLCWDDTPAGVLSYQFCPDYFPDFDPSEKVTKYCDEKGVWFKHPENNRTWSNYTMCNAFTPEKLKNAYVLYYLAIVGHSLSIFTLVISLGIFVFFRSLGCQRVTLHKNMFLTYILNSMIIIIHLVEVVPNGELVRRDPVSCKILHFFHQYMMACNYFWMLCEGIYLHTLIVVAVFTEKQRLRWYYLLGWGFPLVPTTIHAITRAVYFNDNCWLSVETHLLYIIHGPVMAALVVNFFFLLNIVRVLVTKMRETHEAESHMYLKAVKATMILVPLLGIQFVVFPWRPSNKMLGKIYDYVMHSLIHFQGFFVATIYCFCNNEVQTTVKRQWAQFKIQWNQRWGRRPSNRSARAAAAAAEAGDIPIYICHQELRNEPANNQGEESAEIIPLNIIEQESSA
Protocol: The resulting pellet was resuspended, homogenized and centrifuged (20.000 rpm, 15 min) in a buffer containing 20 mM Na-HEPES and 0.1 mM EDTA (pH 7.4, buffer 2). The resulting pellet was resuspended in buffer 2 and protein concentration was measured (BCA protein Assay, Pierce). The homogenate was kept cold during the whole procedure. The membranes were kept at −80° C. until use. The assay was performed in a 384 well Optiplate (PerkinElmer) in a total volume of 40 ul. Membranes were mixed with SPA beads. Final concentration of membranes 35 ng/μL final and SPA beads was 0.05 mg/well. Test-compounds were dissolved in DMSO and further diluted in assay buffer (50 mM Hepes, pH 7.4, 1 mM CaCl2, 5 mM MgCl₂, 0.1% OA and 0.02% Tween20). […] The final mixture was incubated with shaking at 400 rpm for 120 min at 25° C. prior to centrifugation (1500 rpm, 10 min). Samples were analyzed on TopCounter™ (Packard). The IC₅₀ was calculated using (one site binding competition analysis) GraphPad Prism5 as a measure of receptor affinity.
Membranes were prepared in the following way; the cells were rinsed with PBS and incubated with Versene for approximately 5 min before harvesting. The cells were flushed with PBS and the cell-suspension was centrifuged for 5 min at 1000 rpm. Cells were homogenized (Ultrathurrax) in a buffer containing 20 mM Na-HEPES and 10 mM EDTA (pH 7.4) and centrifuged at 20.000 rpm for 15 min. The resulting pellet was resuspended, homogenized and centrifuged (20.000 rpm, 15 min) in a buffer containing 20 mM Na-HEPES and 0.1 mM EDTA (pH 7.4, buffer 2). The resulting pellet was resuspended in buffer 2 and protein concentration was measured (BCA protein Assay, Pierce). The homogenate was kept cold during the whole procedure. The membranes were kept at −80° C. until use. Assay was performed in a 384 well Optiplate (PerkinElmer) in a total volume of 40 ul. Membranes were mixed with SPA beads.

| Binder | IC50 [1] | IC50 (rat calcitonin receptor [2]) | Ratio rCT/rAmylin binding (rat calcitonin receptor [3]) | Ratio hCT/hAmylin binding [4] |
| --- | --- | --- | --- | --- |
| K([γGlu-C14 diacid])CNTATCATQRLANFLRHSSPNFGAIPSSTNVGHNTY-NH2 (disulfide 2-7; N-terminus assumed; SMILES CC[C@H](C)[C@H](NC(=O)[C@H](C)NC(=O)CNC(=O)[C@H](Cc1ccccc1)NC(=O)[C@H](CC(N)=O)NC(=O)[C@@H]1CCCN1C(=O)[C@H](CO)NC(=O)[C@H](CO)NC(=O)[C@H](Cc1c[nH]cn1)NC(=O)[C@H](CCCNC(=N)N)NC(=O)[C@H](CC(C)C)NC(=O)[C@H](Cc1ccccc1)NC(=O)[C@H](CC(N)=O)NC(=O)[C@H](C)NC(=O)[C@H](CC(C)C)NC(=O)[C@H](CCCNC(=N)N)NC(=O)[C@H](CCC(N)=O)NC(=O)[C@@H](NC(=O)[C@H](C)NC(=O)[C@@H]1CSSC[C@H](NC(=O)[C@@H](N)CCCCNC(=O)CC[C@H](NC(=O)CCCCCCCCCCCCC(=O)O)C(=O)O)C(=O)N[C@@H](CC(N)=O)C(=O)N[C@@H]([C@@H](C)O)C(=O)N[C@@H](C)C(=O)N[C@@H]([C@@H](C)O)C(=O)N1)[C@@H](C)O)C(=O)N1CCC[C@H]1C(=O)N[C@@H](CO)C(=O)N[C@@H](CO)C(=O)N[C@H](C(=O)N[C@@H](CC(N)=O)C(=O)N[C@H](C(=O)NCC(=O)N[C@@H](Cc1c[nH]cn1)C(=O)N[C@@H](CC(N)=O)C(=O)N[C@H](C(=O)N[C@@H](Cc1ccc(O)cc1)C(N)=O)[C@@H](C)O)C(C)C)[C@@H](C)O) [N^ε1-[(4S)-4-carboxy-4-(13-carboxytridecanoylamino)butanoyl]-[Arg17,Pro21,Pro27,His34]-h-amylin] | 2.52 nM | 707 nM | 280 | 23.5 |
| K([γGlu-C16 diacid])CNTATCATQRLANFLRHSSPNFGAIPSSTNVGHNTY-NH2 (disulfide 2-7; N-terminus assumed; SMILES CC[C@H](C)[C@H](NC(=O)[C@H](C)NC(=O)CNC(=O)[C@H](Cc1ccccc1)NC(=O)[C@H](CC(N)=O)NC(=O)[C@@H]1CCCN1C(=O)[C@H](CO)NC(=O)[C@H](CO)NC(=O)[C@H](Cc1c[nH]cn1)NC(=O)[C@H](CCCNC(=N)N)NC(=O)[C@H](CC(C)C)NC(=O)[C@H](Cc1ccccc1)NC(=O)[C@H](CC(N)=O)NC(=O)[C@H](C)NC(=O)[C@H](CC(C)C)NC(=O)[C@H](CCCNC(=N)N)NC(=O)[C@H](CCC(N)=O)NC(=O)[C@@H](NC(=O)[C@H](C)NC(=O)[C@@H]1CSSC[C@H](NC(=O)[C@@H](N)CCCCNC(=O)CC[C@H](NC(=O)CCCCCCCCCCCCCCC(=O)O)C(=O)O)C(=O)N[C@@H](CC(N)=O)C(=O)N[C@@H]([C@@H](C)O)C(=O)N[C@@H](C)C(=O)N[C@@H]([C@@H](C)O)C(=O)N1)[C@@H](C)O)C(=O)N1CCC[C@H]1C(=O)N[C@@H](CO)C(=O)N[C@@H](CO)C(=O)N[C@H](C(=O)N[C@@H](CC(N)=O)C(=O)N[C@H](C(=O)NCC(=O)N[C@@H](Cc1c[nH]cn1)C(=O)N[C@@H](CC(N)=O)C(=O)N[C@H](C(=O)N[C@@H](Cc1ccc(O)cc1)C(N)=O)[C@@H](C)O)C(C)C)[C@@H](C)O) [N^ε1-[(4S)-4-carboxy-4-(15-carboxypentadecanoylamino)butanoyl]-[Arg17,Pro21,Pro27,His34]-h-amylin] | 1.24 nM | 404 nM | 327 | 18.5 |
| K([γGlu-C20 diacid])CNTATCATQRLAAFLRHSSPNFGAIPSSTNVGPNTY-NH2 (disulfide 2-7; N-terminus assumed; SMILES CC[C@H](C)[C@H](NC(=O)[C@H](C)NC(=O)CNC(=O)[C@H](Cc1ccccc1)NC(=O)[C@H](CC(N)=O)NC(=O)[C@@H]1CCCN1C(=O)[C@H](CO)NC(=O)[C@H](CO)NC(=O)[C@H](Cc1c[nH]cn1)NC(=O)[C@H](CCCNC(=N)N)NC(=O)[C@H](CC(C)C)NC(=O)[C@H](Cc1ccccc1)NC(=O)[C@H](C)NC(=O)[C@H](C)NC(=O)[C@H](CC(C)C)NC(=O)[C@H](CCCNC(=N)N)NC(=O)[C@H](CCC(N)=O)NC(=O)[C@@H](NC(=O)[C@H](C)NC(=O)[C@@H]1CSSC[C@H](NC(=O)[C@@H](N)CCCCNC(=O)CC[C@H](NC(=O)CCCCCCCCCCCCCCCCCCC(=O)O)C(=O)O)C(=O)N[C@@H](CC(N)=O)C(=O)N[C@@H]([C@@H](C)O)C(=O)N[C@@H](C)C(=O)N[C@@H]([C@@H](C)O)C(=O)N1)[C@@H](C)O)C(=O)N1CCC[C@H]1C(=O)N[C@@H](CO)C(=O)N[C@@H](CO)C(=O)N[C@H](C(=O)N[C@@H](CC(N)=O)C(=O)N[C@H](C(=O)NCC(=O)N1CCC[C@H]1C(=O)N[C@@H](CC(N)=O)C(=O)N[C@H](C(=O)N[C@@H](Cc1ccc(O)cc1)C(N)=O)[C@@H](C)O)C(C)C)[C@@H](C)O, also called compound 94) | 0.397 nM | 111 nM | 280 | 46.3 |
| K([γGlu-C18 diacid])CNTATCATQRLANFLRHSSPNFGAIPSSTNVGHNTY-NH2 (disulfide 2-7; N-terminus assumed; SMILES CC[C@H](C)[C@H](NC(=O)[C@H](C)NC(=O)CNC(=O)[C@H](Cc1ccccc1)NC(=O)[C@H](CC(N)=O)NC(=O)[C@@H]1CCCN1C(=O)[C@H](CO)NC(=O)[C@H](CO)NC(=O)[C@H](Cc1c[nH]cn1)NC(=O)[C@H](CCCNC(=N)N)NC(=O)[C@H](CC(C)C)NC(=O)[C@H](Cc1ccccc1)NC(=O)[C@H](CC(N)=O)NC(=O)[C@H](C)NC(=O)[C@H](CC(C)C)NC(=O)[C@H](CCCNC(=N)N)NC(=O)[C@H](CCC(N)=O)NC(=O)[C@@H](NC(=O)[C@H](C)NC(=O)[C@@H]1CSSC[C@H](NC(=O)[C@@H](N)CCCCNC(=O)CC[C@H](NC(=O)CCCCCCCCCCCCCCCCC(=O)O)C(=O)O)C(=O)N[C@@H](CC(N)=O)C(=O)N[C@@H]([C@@H](C)O)C(=O)N[C@@H](C)C(=O)N[C@@H]([C@@H](C)O)C(=O)N1)[C@@H](C)O)C(=O)N1CCC[C@H]1C(=O)N[C@@H](CO)C(=O)N[C@@H](CO)C(=O)N[C@H](C(=O)N[C@@H](CC(N)=O)C(=O)N[C@H](C(=O)NCC(=O)N[C@@H](Cc1c[nH]cn1)C(=O)N[C@@H](CC(N)=O)C(=O)N[C@H](C(=O)N[C@@H](Cc1ccc(O)cc1)C(N)=O)[C@@H](C)O)C(C)C)[C@@H](C)O) [N^ε1-[(4S)-4-carboxy-4-(17-carboxyheptadecanoylamino)butanoyl]-[Arg17,Pro21,Pro27,His34]-h-amylin] | 1.17 nM | 47 nM | 40.3 | 59.4 |
